Measurements taken from paper PMC10006412.

Target: Newcastle disease virus phosphoprotein (P protein) (Newcastle disease virus)
Experiment: cryo-EM structure

Substance: Newcastle disease virus phosphoprotein (P protein) (natural protein)
- stoichiometry N: 4
